In article PMC4057808, “Molecular characterization of Clonorchis sinensis secretory myoglobin: Delineating its role in anti-oxidative survival” (Parasites & Vectors, 2014) one finds Km data, which are given here for one substance.

For this data set, the system named is COc1ccccc1O. Kind of data set: purified protein. As to conditions: H2O2 (0.2 mM in methods, ~20 μM in table note), 50 mM sodium phosphate pH 7.0, 20 °C, guaiacol varied 0.08-2.5 mM as printed.

In the case of “rCsMb (CsMb, Clonorchis sinensis myoglobin) (Clonorchis sinensis)”, the Km was determined as 81 mM.
